{"source": "paper PMC5033356", "about": "“Crystal Structure of the Escherichia coli Fic Toxin-Like Protein in Complex with Its Cognate Antitoxin” (PLoS ONE, 2016)", "binders": {"B1": {"name": "EcFicA (cognate antitoxin of EcFicT, wild type) (natural protein, Escherichia coli)", "chain": "KKLTDKQKSRLWELQRNRNFQASRRLEGVEMPLVTLTAAEALARLEELRSHYER", "notes": "EcFicA, product of the yhfG gene (renamed ecficA) of Escherichia coli; UniProt P0ADX5; model of PDB 5JFF covers residues 3-53; also called EcFicAwt; YhfG"}, "B2": {"name": "EcFicA_(E28G) (natural protein, Escherichia coli)", "chain": "B1 chain with E27G", "notes": "model of PDB 5JFZ covers residues 5-53; also called antitoxin mutant EcFicA_(E28G)"}}, "key": {"[1]": {"target": "T1, EcFicT (E. coli Fic toxin-like protein, wild type) (Escherichia coli, UniProt P20605 3-200)", "T1 construct": "EcFicT, product of the fic gene (renamed ecficT) of Escherichia coli; UniProt P20605; model of PDB 5JFZ covers residues 10-81, 88-195; also called EcFicTwt; Fic protein from E. coli", "T1 sequence": "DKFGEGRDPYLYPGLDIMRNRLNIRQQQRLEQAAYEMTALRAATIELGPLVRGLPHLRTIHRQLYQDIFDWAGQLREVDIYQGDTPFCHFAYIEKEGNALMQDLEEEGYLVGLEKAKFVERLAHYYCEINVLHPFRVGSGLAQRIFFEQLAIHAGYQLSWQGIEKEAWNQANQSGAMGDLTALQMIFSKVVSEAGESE", "test": "SEC-MALS", "details": "both partners purified"}, "EcFicT_(G55R)": {"target": "T2, EcFicT_(G55R) (Escherichia coli, UniProt P20605 3-200, G55R)", "T2 construct": "EcFicT of Escherichia coli, UniProt P20605, with G55R (the change encoded by the temperature-sensitive fic-1 allele), introduced by a single base-pair mutation; model of PDB 5JFF covers residues 10-15, 17-198; G55R is the change of the fic-1 mutant allele described by Utsumi et al; here it was introduced into the plasmid by mutagenesis; also called G55R point mutant of EcFicT; product of the …", "T2 sequence": "T1 sequence with G53R", "test": "SEC-MALS", "details": "both partners purified"}}, "note": "Positions count from the first letter of the chain named. Names may count otherwise.", "data": [{"binder": "B1", "values": [{"measurement": "stoichiometry N", "setting": "[1]", "value": 1}, {"measurement": "stoichiometry N", "setting": "EcFicT_(G55R)", "value": 1}]}, {"binder": "B2", "values": [{"measurement": "stoichiometry N", "setting": "[1]", "value": 1}, {"measurement": "stoichiometry N", "setting": "EcFicT_(G55R)", "value": 1}]}]}
